Details in all cases: both partners purified
For assay [1], the target named is T1, RecA2 domain of Sc Ded1p (residues 369-535) (S. cerevisiae, UniProt P06634 369-535).
T1 construct: Ded1p (DEAD-box RNA helicase), S. cerevisiae, second RecA domain, residues 369-535; 15N and/or 13C isotope labelled when it was the NMR-visible partner, unlabelled when NMR invisible; also called second RecA domain; Rec2 subdomain; source: E. coli, purified (Ni-NTA, TEV cleavage, second Ni-NTA, size exclusion); not shown: His6, N-terminal, cleaved
T1 sequence (P06634 369-535): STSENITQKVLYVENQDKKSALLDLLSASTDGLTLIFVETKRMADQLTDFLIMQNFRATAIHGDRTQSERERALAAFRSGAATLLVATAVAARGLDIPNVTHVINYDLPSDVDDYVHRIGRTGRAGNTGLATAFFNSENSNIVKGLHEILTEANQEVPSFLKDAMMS
Put plainly: NMR titration; 1H-15N spectra of the isotope-labelled N-terminal IDR; unlabelled helicase core, RecA1 or RecA2 added; 20 mM HEPES pH 7.3, 125 mM NaCl, 1 mM DTT, 5% D2O.

For assay [2], the target named is T2, helicase core region of Sc Ded1p (RecA1-RecA2, residues 82-535) (S. cerevisiae, UniProt P06634 82-535).
T2 construct: Ded1p (DEAD-box RNA helicase), S. cerevisiae, helicase core region (RecA1-RecA2), residues 82-535; Used unlabelled (NMR invisible); also called Sc helicase domain (RecA1-RecA2); helicase core domain; source: E. coli, purified (Ni-NTA, TEV cleavage, second Ni-NTA, size exclusion); not shown: His6, N-terminal, cleaved
T2 sequence (P06634 82-535): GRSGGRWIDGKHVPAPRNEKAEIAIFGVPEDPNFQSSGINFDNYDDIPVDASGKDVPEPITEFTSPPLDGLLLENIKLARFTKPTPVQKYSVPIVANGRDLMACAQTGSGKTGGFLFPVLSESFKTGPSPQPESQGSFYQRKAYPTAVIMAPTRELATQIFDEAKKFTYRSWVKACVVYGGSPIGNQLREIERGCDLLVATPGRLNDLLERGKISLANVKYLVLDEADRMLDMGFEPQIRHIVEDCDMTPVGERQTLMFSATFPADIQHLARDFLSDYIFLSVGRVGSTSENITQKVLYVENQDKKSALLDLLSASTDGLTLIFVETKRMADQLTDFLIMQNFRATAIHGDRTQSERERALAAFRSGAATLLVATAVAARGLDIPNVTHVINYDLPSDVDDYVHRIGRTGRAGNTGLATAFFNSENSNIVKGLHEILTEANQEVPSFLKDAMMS
The assay is described as above.

Assay [3] deals with T3, RecA1 domain of Sc Ded1p (residues 82-369) (S. cerevisiae, UniProt P06634 82-369).
T3 construct: Ded1p (DEAD-box RNA helicase), S. cerevisiae, first RecA domain, residues 82-369; Used unlabelled (NMR invisible); also called first RecA domain; RecA1 subdomain; source: E. coli, purified (Ni-NTA, TEV cleavage, second Ni-NTA, size exclusion); not shown: His6, N-terminal, cleaved
T3 sequence (P06634 82-369): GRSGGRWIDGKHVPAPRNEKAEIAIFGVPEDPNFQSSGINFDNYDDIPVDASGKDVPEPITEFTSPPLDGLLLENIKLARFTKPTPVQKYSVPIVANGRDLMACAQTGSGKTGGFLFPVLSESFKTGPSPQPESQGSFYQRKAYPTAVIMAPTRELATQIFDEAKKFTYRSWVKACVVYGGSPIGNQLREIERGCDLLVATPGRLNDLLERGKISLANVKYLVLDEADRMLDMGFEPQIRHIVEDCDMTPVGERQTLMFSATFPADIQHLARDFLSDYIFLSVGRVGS
As to the kind of experiment: NMR titration; 1H-15N spectra of the isotope-labelled C-terminal IDR; unlabelled helicase core, RecA1 or RecA2 added; visible condensation in the NMR tube; 20 mM HEPES pH 7.3, 125 mM NaCl, 1 mM DTT, 5% D2O.

For assay [4], the target named is T2, helicase core region of Sc Ded1p …. Described as above.

B1: N-terminal IDR of Sc Ded1p (residues 1-81) (domain or fragment, S. cerevisiae, UniProt P06634 1-81, looked up)
chain: MAELSEQVQNLSINDNNENGYVPPHLRGKPRSARNNSSNYNNNNGGYNGGRGGGSFFSNNRRGGYGNGGFFGGNNGGSRSN
notes: Ded1p (DEAD-box RNA helicase), S. cerevisiae, N-terminal intrinsically disordered region, residues 1-81; 15N and/or 13C isotope labelled when it was the NMR-visible partner, grown in LB (unlabelled) when NMR invisible; also called N-terminal region; N-IDR; source: E. coli, purified (Ni-NTA, TEV cleavage, second Ni-NTA, size exclusion); not shown: His6, N-terminal, cleaved
As for B1, the binding result in assay [1] and in assay [2] was “binds” throughout.

B2: C-terminal IDR of Sc Ded1p (residues 533-604) (domain or fragment, S. cerevisiae, UniProt P06634 533-604, looked up)
chain: MMSAPGSRSNSRRGGFGRNNNRDYRKAGGASAGGWGSSRSRDNSFRGGSGWGSDSKSSGWGNSGGSNNSSWW
notes: Ded1p (DEAD-box RNA helicase), S. cerevisiae, C-terminal intrinsically disordered region, residues 533-604; 15N isotope labelled (NMR visible) in the titrations; also called C-IDR; source: E. coli, purified (Ni-NTA, TEV cleavage, second Ni-NTA, size exclusion); not shown: His6, N-terminal, cleaved
As to B2, the binding result in assay [3] and in assay [4] was “binds” each time.

For the origin of these results see publication doi:10.1101/2022.10.11.511767, “A conserved and tunable mechanism for the temperature-controlled condensation of the translation factor Ded1p” (bioRxiv, 2022).
